From PMC2483945, “Structure of the Head of the Bartonella Adhesin BadA” (PLoS Pathogens, 2008) come the findings set out here.

Data set [1] addresses BadA head fragment after chymotrypsin treatment (protease-resistant fragment of approx. 14 kDa) (Bartonella henselae). As to the kind of experiment: not stated; fragments of approx. 14 kDa after trypsin or chymotrypsin treatment (10 min, room temperature, 20 mM MOPS/KOH pH 7.2, 150 mM NaCl); how the trimers were shown is not told.
For data set [2], the target named is BadA head fragment after trypsin treatment (protease-resistant fragment of approx. 14 kDa) (Bartonella henselae). Described as above.
Data set [3] deals with the molecule itself. As to the kind of experiment: SEC-MALS; calibrated analytical S200 column (GE Healthcare) coupled to a MiniDAWN Tristar static light scattering detector; data not shown. A general note: SEC sorts molecules by how far they enter the pores of the column.

Usually stoichiometry N stands for a count of units in the complex or per binding partner. For “BadA head fragment after chymotrypsin treatment (protease-resistant fragment of approx. 14 kDa) (domain or fragment)”, the stoichiometry N in data set [1] worked out at 3.

Molecule “BadA head fragment after trypsin treatment (protease-resistant fragment of approx. 14 kDa) (domain or fragment)” displayed a stoichiometry N in data set [2] of 3.

B1: BadA head fragment (Trp-ring domain, GIN domain, neck and first stalk segment; residues 375 to 536) (domain or fragment)
chain: KALRGMISEKGGWNLTVNNDNNTVVSSGGALDLSSGSKNLKIVKDGKKNNVTFDVARDLTLKSIKLDGVTLNETGLFIANGPQITASGINAGSQKITGVAEGTDANDAVNFGQLKKIETEVKEQVAASGFVKQDSDTKYLTIGKDTDGDTINIANNKSDKRT
notes: Residues 385-498 are resolved in the crystal; also called BadA construct; BadA fragment; source: recombinantly expressed, purified as described [11]
As for B1, in data set [3], the “stoichiometry N” value amounted to 3.
